Measurements from patent publication US20230087785A1, “Leucine-Rich Repeat Kinase 2 Allosteric Modulators” (VIB VZW, priority 2020, published 2023).

Key:
[1] = target: T1, endogenous mouse LRRK2 (RAW264.7 cells) (mouse, UniProt Q5S006 1-2527); test: immunofluorescence colocalisation of GFP-Nb and LRRK2 in RAW264.7 cells
T1 construct: also called endogenous LRRK2
Source text: (§1) To test whether Nbs can trace and visualize endogenous LRRK2 in fixed cells, we generated green fluorescent protein (GFP)-Nb fusions (fluobodies) as described before. Recently, it was shown that LRRK2 is recruited to phagosomes upon induction of phagocytosis in immune cells. Therefore, RAW264.7 cells were transfected with these fluobodies and treated with killed yeast bioparticles “zymosan” to induce phagocytosis.
RAW264.7 cells (ATCC® SC-6003™) were transfected with peGFP-Nb constructs using JetOPTIMUS (Polyplus transfection) for 24 hrs and then stimulated with Zymosan particles (Sigma Aldrich) for 30 mins ([…]). Immunostaining for LRRK2 was performed as reported before. Briefly, cells fixed with 4% (w/v) paraformaldehyde for 30 min, followed by treatment with 100% EtOH at −20° C. Sampled were permeabilized with PBS/0.5% Triton X-100 and blocked with 3% BSA. Primary antibodies (rabbit anti-LRRK2, c41-2, Abcam and mouse anti-GFP, G6539, Sigma Aldrich) were diluted in PBS containing 3% BSA and 0.5% Triton X-100 and incubated overnight at 4° C. […] Cells were washed twice with 1×PBS and mounted with Fluroshield antifade reagent with DAPI (SigmaAldrich). Images were acquired on Zeiss LSM800 confocal laser scanning microscope. Image analysis of z-scan was done using the Zeiss microscope software ZEN.

LRRK2(G2019S) = target: T2, LRRK2(G2019S) (Homo sapiens, UniProt Q5S007, G2019S/M2397T/R50H); test: In cellulo phospho-Rab / LRRK2 autophosphorylation assay in HEK293T cells; format: cell-based; design: key to Functional Group (see FIG. 2d): Group 1: group 1: Nbs that inhibit both LRRK2 autophosphorylation and Rab10 phosphorylation in cells; Group 2: group 2: Nbs that inhibit only Rab10 phosphorylation; Group 3: group 3: Nbs that activate LRRK2 kinase activity; Group 4: group 4: Nbs that have no consistent/clear effect on LRRK2 kinase activity; conditions: for LRRK2 autophosphorylation at position S1292 / influence on LRRK2 kinase activity compared to the controls / Rab10 phosphorylation at position T72: HEK 293T cells co-expressing LRRK2(G2019S), Rab29 and Nb-GFP; for influence on LRRK2 kinase activity compared to the controls: Western blot; for Functional Group (see FIG. 2d): classification by effect on in cellulo LRRK2(G2019S) kinase activity; for Rab10 phosphorylation at position T72: endogenous Rab10
T2 construct: SF tag (FLAG + Twin-Strep); expressed in transfected cells; host or cells: HEK 293T
Summary of the method: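 Cells co-transfected (PEI) with SF-tagged LRRK2(G2019S), FLAG-HA Rab29 and Nb-GFP fusions, lysed after 48 hrs. Western blot read LRRK2 pS1292 and endogenous Rab10 pT72 with site-specific antibodies, referenced to total LRRK2 and Rab10; ECL chemiluminescence on film.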

endogenous LRRK2 = target: T3, endogenous LRRK2 (Mus musculus, UniProt Q5S006); test: Colocalization of GFP-Nbs with endogenous LRRK2 on zymosan-containing phagosomes in RAW264.7 cells; format: cell-based; conditions: RAW264.7 cells transfected with GFP-Nbs, zymosan 30 mins, fixed cells
T3 construct: endogenous in cells; host or cells: RAW264.7
Protocol: RAW264.7 cells were transfected with GFP-fused Nbs and treated with Zymosan for 30 mins. Recruitment of LRRK2 and Nbs to the phagosomes was analyzed by immunofluorescence. FIG. 16A, images for Nb38, Nb22, Nb23, Nb40, No Nb, or Irrelevant (IRR) Nb treatments; FIG. 16B, images for Nb36, Nb42, Nb17, Nb39, Nb1, and Nb6 treatments. Scale bar=10 μm.
as §1
RAW264.7 cells (ATCC® SC-6003™) were transfected with peGFP-Nb constructs using JetOPTIMUS (Polyplus transfection) for 24 hrs and then stimulated with Zymosan particles (Sigma Aldrich) for 30 mins ([…]). Immunostaining for LRRK2 was performed as reported before. Briefly, cells fixed with 4% (w/v) paraformaldehyde for 30 min, followed by treatment with 100% EtOH at −20° C. Sampled were permeabilized with PBS/0.5% Triton X-100 and blocked with 3% BSA. Primary antibodies (rabbit anti-LRRK2, c41-2, Abcam and mouse anti-GFP, G6539, Sigma Aldrich) were diluted in PBS containing 3% BSA and 0.5% Triton X-100 and incubated overnight at 4° C. After three 5-min washes with PBS, secondary fluorescently labeled antibodies (anti-rabbit-Alexa fluor 568 and anti-mouse-Alexa fluor 488, Invitrogen) were added in a similar manner to primary antibodies and incubated for 1 hour at room temperature. Cells were washed twice with 1×PBS and mounted with Fluroshield antifade reagent with DAPI (SigmaAldrich). Images were acquired on Zeiss LSM800 confocal laser scanning microscope. Image analysis of z-scan was done using the Zeiss microscope software ZEN.

mScarlet-LRRK2 = target: T4, mScarlet-LRRK2 (Homo sapiens, UniProt Q5S007, M2397T/R50H); test: Confocal microscopy of LRRK2 microtubule localization in HEK293 cells; format: cell-based; conditions: HEK293 cells co-transfected with mScarlet-LRRK2 and GFP-Nb, treated with 1 μM MLi-2
T4 construct: expressed in transfected cells; host or cells: HEK293
Source text: HEK 293 cells were co-transfected with the indicated GFP-Nbs and mScarlet-LRRK2. […] Scale bar 5 μm.
FIG. 6. […] Scale bar 5 μm.
The binding of LRRK2 to microtubules subsequently reduces the kinesin—and dynein-mediated transport along microtubules.
Recent structural information has linked LRRK2 microtubule relocalization to the conformation of the kinase domain, with a closed conformation favoring LRRK2 binding to microtubules. As a consequence, the commonly used ATP-competitive type I LRRK2 inhibitors trigger this effect. In addition, it was shown before that the WD40 domain is indispensable for LRRK2-microtubule association.
A HEK293 cell line was cultured in complete media (high-glucose Dulbecco's modified Eagle's medium, 10% fetal bovine serum and Penicillin-Streptomycin-Glutamine (Gibco)). Cells were seeded on 8-well p-Slide(Ibidi) and transfected at a confluency of 50-70% with GFP-Nb and mScarlet-LRRK2 constructs, using JetPEI reagent (Polyplus transfection). […] Data acquisition was done with a ×100 oil-immersion objective with a Zeiss LSM800 confocal laser scanning microscope. Image analysis of z-scan was done using the Zeiss microscope software ZEN.

T1 sequence (Q5S006 whole entry): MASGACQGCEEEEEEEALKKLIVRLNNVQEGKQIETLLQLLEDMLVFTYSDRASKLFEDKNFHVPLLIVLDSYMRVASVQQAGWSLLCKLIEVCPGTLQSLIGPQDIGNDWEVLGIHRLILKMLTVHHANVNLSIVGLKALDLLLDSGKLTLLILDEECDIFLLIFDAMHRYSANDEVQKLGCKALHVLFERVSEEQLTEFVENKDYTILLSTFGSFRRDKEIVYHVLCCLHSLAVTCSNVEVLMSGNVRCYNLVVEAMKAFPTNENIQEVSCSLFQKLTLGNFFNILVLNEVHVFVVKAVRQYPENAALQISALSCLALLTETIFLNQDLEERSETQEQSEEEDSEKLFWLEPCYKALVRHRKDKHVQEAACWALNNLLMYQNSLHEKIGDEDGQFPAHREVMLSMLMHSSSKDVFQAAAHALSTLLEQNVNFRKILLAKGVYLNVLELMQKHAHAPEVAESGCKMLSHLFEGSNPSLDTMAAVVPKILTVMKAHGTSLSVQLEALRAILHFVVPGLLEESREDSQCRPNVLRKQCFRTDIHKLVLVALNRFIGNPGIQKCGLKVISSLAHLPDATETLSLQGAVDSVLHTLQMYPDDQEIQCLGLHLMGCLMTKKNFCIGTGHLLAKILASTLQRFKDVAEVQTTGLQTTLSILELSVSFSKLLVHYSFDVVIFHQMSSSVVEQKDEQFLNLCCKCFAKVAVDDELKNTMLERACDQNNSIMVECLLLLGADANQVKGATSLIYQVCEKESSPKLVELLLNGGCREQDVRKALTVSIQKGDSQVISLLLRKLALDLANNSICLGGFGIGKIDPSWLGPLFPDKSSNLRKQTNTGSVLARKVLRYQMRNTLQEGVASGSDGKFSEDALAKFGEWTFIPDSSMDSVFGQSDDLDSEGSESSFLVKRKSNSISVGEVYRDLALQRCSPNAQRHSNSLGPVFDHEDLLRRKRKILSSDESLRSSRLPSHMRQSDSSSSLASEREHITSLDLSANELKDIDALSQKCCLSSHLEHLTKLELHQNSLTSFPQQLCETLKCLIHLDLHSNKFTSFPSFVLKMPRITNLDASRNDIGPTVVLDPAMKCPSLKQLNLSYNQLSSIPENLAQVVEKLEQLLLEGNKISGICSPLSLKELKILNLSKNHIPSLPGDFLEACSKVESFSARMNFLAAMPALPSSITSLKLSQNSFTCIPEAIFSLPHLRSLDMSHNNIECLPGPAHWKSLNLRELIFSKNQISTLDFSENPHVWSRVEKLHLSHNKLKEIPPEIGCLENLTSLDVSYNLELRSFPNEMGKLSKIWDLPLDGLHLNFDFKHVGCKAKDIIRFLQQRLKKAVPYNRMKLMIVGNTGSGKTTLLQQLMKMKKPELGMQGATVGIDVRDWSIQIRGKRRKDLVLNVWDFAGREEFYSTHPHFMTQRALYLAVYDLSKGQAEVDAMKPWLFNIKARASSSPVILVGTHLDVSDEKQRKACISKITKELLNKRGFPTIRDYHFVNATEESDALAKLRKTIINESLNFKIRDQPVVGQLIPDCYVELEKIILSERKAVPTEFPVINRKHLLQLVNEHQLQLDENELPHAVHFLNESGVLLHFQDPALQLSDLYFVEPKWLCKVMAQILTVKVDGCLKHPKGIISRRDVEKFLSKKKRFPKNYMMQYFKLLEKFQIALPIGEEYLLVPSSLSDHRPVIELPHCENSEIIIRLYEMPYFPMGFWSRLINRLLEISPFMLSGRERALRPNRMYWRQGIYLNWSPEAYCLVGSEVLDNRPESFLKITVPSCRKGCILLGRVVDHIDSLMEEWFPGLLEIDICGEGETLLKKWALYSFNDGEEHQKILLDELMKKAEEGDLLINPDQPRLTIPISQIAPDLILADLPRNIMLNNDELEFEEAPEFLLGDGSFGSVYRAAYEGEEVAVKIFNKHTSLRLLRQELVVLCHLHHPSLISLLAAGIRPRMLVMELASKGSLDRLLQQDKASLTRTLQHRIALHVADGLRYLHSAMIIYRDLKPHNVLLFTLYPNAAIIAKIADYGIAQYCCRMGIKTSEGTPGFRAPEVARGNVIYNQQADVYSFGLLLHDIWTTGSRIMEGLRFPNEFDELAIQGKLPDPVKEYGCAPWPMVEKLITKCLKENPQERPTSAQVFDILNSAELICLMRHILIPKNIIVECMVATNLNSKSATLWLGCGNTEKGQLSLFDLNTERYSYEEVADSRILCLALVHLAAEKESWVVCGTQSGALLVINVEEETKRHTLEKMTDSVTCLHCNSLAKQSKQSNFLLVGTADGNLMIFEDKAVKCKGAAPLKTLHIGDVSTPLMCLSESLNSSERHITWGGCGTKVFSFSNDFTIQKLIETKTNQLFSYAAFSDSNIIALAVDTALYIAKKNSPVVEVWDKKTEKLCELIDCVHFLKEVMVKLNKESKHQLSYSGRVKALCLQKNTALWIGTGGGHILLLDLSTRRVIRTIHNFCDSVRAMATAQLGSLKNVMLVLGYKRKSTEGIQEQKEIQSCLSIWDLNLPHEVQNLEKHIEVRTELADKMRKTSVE
T2 sequence (Q5S007 whole entry R50H/G2019S/M2397T): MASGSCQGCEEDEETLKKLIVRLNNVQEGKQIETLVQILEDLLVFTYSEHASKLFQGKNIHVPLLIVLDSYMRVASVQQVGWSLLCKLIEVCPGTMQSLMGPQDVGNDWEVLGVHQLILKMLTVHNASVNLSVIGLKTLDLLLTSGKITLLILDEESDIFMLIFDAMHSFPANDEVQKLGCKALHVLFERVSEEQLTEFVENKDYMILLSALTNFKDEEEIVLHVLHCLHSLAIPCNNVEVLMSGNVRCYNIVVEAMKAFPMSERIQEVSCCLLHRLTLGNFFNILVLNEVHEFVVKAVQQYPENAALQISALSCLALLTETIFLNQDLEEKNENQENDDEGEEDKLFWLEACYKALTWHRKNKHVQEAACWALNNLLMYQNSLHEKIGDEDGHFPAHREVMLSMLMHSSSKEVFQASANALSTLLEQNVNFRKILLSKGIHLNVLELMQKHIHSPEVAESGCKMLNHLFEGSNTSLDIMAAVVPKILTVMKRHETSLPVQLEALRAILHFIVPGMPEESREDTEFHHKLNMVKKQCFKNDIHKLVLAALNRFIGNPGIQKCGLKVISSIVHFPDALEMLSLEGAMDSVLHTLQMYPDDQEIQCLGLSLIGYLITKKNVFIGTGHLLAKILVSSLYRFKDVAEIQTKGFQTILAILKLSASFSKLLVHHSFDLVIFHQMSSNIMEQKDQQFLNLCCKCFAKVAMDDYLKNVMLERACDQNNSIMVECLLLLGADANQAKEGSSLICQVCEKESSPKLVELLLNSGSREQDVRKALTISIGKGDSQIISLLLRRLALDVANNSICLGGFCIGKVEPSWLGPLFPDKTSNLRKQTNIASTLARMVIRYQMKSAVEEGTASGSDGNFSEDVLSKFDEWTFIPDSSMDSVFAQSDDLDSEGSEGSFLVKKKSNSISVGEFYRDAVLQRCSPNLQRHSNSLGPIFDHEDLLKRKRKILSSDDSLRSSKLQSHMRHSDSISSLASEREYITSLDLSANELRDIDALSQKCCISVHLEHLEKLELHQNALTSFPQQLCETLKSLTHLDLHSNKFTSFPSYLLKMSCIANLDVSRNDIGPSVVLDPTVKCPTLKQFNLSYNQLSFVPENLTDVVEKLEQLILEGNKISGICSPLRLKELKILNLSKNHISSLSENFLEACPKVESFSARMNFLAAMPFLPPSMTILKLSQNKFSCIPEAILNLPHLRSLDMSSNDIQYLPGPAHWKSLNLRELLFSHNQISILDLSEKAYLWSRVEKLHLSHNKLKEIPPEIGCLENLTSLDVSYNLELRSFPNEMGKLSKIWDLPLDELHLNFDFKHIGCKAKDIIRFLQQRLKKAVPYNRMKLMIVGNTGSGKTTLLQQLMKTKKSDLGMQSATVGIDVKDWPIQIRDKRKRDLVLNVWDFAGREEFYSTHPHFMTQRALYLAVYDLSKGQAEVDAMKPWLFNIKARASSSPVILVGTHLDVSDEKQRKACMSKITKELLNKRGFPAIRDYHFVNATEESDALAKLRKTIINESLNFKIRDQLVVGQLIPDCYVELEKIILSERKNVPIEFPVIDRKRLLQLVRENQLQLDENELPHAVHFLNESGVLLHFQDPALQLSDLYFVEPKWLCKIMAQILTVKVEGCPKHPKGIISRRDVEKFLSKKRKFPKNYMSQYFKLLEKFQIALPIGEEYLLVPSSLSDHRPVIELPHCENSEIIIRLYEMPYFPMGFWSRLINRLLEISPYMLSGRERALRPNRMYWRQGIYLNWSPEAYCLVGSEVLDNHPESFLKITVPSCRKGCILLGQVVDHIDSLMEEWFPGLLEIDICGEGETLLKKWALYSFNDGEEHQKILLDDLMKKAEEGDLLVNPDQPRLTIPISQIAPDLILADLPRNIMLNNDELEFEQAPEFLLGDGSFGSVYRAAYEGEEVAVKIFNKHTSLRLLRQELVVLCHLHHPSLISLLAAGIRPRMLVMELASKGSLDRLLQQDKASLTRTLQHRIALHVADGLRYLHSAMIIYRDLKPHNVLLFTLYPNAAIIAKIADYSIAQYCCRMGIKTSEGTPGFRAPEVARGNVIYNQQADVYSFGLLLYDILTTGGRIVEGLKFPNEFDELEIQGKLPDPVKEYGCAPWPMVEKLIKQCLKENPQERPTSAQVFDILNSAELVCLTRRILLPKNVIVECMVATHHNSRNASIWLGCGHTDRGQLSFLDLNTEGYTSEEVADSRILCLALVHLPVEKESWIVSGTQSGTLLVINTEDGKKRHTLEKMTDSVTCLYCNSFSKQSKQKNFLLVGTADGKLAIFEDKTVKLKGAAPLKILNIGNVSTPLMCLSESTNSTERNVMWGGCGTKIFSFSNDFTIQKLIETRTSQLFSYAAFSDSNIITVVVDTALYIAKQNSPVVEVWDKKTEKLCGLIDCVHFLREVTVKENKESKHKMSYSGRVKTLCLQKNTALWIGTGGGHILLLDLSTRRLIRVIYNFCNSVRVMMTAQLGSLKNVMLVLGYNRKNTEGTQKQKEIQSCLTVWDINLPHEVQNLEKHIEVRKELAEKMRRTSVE
T3 sequence (Q5S006 whole entry): as the sequence (Q5S006 whole entry) above
T4 sequence (Q5S007 whole entry R50H/M2397T): as the sequence (Q5S007 whole entry R50H/G2019S/M2397T) above, with S2019G counted along it

B1: Nb22 (CA13611)-GFP fusion (VHH)
VHH: QVQLVESGGGLVQAGGSLRLSCAASGRTFSSYTMGWFRQAPGKEREFVAAIRWSGGSTYYADSVKGRFTISRDNAKNTVYLQMNSLKPEDTAVYYCAASDRGGFIATSGGWMDYWGKGTQVTVSS
notes: expressed in cells as intrabody; also called GFP-Nb22; fluobody Nb22; not shown: enhanced GFP fused to the C-terminus of the Nb (pEGFP-N1)
binding result [1]: binds

B2: Nb23 (CA13612)-GFP fusion (VHH)
VHH: QVQLVESGGGLVQAGGSLRLSCAASGRTFSRYTMGWFRQAPGKDREFVARITTSGAVTTYADSAKGRFTISRDNAKNTVYLQMNTLKPEDTAVYYCAAGQGQLSSQSRFVDYWGQGTQVTVSS
notes: expressed in cells as intrabody; also called GFP-Nb23; fluobody Nb23; not shown: enhanced GFP fused to the C-terminus of the Nb (pEGFP-N1)
binding result [1]: binds

B3: Nb38 (CA14133)-GFP fusion (VHH)
VHH: QVQLVESGGGLVQPGGSLRLSCAASGSIRSIATSAWYRQPPGKQRELVAGISSGTTTNYADSVKGRFTISRDNAKNTVYLQMNSLKPEDTAVYYCHAWISGTWISGQGTQVTVSS
notes: expressed in cells as intrabody; also called GFP-Nb38; fluobody Nb38; not shown: enhanced GFP fused to the C-terminus of the Nb (pEGFP-N1)
binding result [1]: binds

B4: Nb40 (CA14135)-GFP fusion (VHH)
VHH: QVQLVESGGGLVQPGGSLRLSCVASGTIYAINRMGWYRQAPGKQRELVALITLGGGTNYGDSVKGRFTISRDNAKNTGYLQMNSLKPEDTAVYYCKVESSGYTDVFWGQGTQVTVSS
notes: expressed in cells as intrabody; also called GFP-Nb40; fluobody Nb40; not shown: enhanced GFP fused to the C-terminus of the Nb (pEGFP-N1)
binding result [1]: binds

B5: Nb17: LRRK2-specific Nanobody, SEQ ID NO: 5 (protein)
VHH: MAQVQLVESGGGLVQPGGSLRLSCAASGSNIGYMAWYRQAPGSQRELVARIASGGSANYADSVKGRFTISRDNVKNTVYLHMNSLKPVDTAVYYCHADAWYNSRWSDYWGQGTQVTVSS
modifications: Nanobody CA13606
LRRK2 autophosphorylation at position S1292 (LRRK2(G2019S)): inhibiting S1292 phosphorylation at a lesser extent | influence on LRRK2 kinase activity compared to the controls (LRRK2(G2019S)): strongly decreased LRRK2 autophosphorylation and/or Rab10 phosphorylation | Functional Group (see FIG. 2d) (LRRK2(G2019S)): Group 2 | Rab10 phosphorylation at position T72 (LRRK2(G2019S)): inhibit Rab10 phosphorylation | colocalization with endogenous LRRK2 on phagosomes (endogenous LRRK2): LRRK2 recruitment to phagosomes was slightly detectable | effect on MLi-2-induced recruitment of LRRK2 to microtubules (mScarlet-LRRK2): rescuing effect is most prominent

B6: Nb40: LRRK2-specific Nanobody, SEQ ID NO: 4 (protein)
VHH: MAQVQLVESGGGLVQPGGSLRLSCVASGTIYAINRMGWYRQAPGKQRELVALITLGGGTNYGDSVKGRFTISRDNAKNTGYLQMNSLKPEDTAVYYCKVESSGYTDVFWGQGTQVTVSS
modifications: Nanobody CA14135
LRRK2 autophosphorylation at position S1292 (LRRK2(G2019S)): inhibiting S1292 phosphorylation at a lesser extent | influence on LRRK2 kinase activity compared to the controls (LRRK2(G2019S)): strongly decreased LRRK2 autophosphorylation and/or Rab10 phosphorylation | Functional Group (see FIG. 2d) (LRRK2(G2019S)): Group 2 | Rab10 phosphorylation at position T72 (LRRK2(G2019S)): inhibit Rab10 phosphorylation | colocalization with endogenous LRRK2 on phagosomes (endogenous LRRK2): clearly colocalized with LRRK2 on zymosan-containing phagosomes | effect on MLi-2-induced recruitment of LRRK2 to microtubules (mScarlet-LRRK2): rescuing effect is most prominent
